Reference: article PMC8310559

These substances were tested against ectodomain of SARS-CoV-2 S protein (a.a. 1-1208 (SARS-CoV-2) (UniProt P0DTC2)) (assay: SPR).
With CR3022 Fab the Kd was 45.4 nM.
CR3022 scFv VHVL showed a Kd of 20.1 nM.
Substance CR3022 IgG (antibody) has a Kd of 0.21 nM.
Substance CR3022 scFv VLVH has a Kd of 27.8 nM.
